The record followed here is IntAct's records for PubMed 16510448.

B1: DNA polymerase delta subunit 4 (Homo sapiens), Q9HCU8 (parent)
chain: MGRKRLITDSYPVVKRREGPAGHSKGELAPELGEEPQPRDEEEAELELLRQFDLAWQYGPCTGITRLQRWCRAKQMGLEPPPEVWQVLKTHPGDPRFQCSLWHLYPL

Variants of B1 are the subject of this assay. Conditions: with pcna_human PCNA.
For the variant I7A;S10A;Y11A, the “effect of a mutation on the interaction” value is “disrupting interaction”.
